The target of the assay is human prion protein (hPrP), amino acid residues 23-230 (human) (UniProt P04156). The assay is described as follows: high-speed atomic force microscopy (HS-AFM).

One may read the stoichiometry N as a count of units in the complex or per binding partner. As for “human prion protein (hPrP), amino acid residues 23-230, P04156 23-230 (domain or fragment; other documents disagree on this pair)”, the stoichiometry N turned out to be 6.

The record behind these values is PMC8049198.
